We go through 6 molecules from US20230220042A1 (SHANGHAI JIAO TONG UNIVERSITY SCHOOL OF MEDICINE, published 2023).

The target of test [1] is T1, Biotin-FcγRIIB (human, UniProt P31994 43-217, limits assumed, biotin-labelled).
T1 construct: Bought, biotin-labelled; used at 1 µg/ml for staining and sorting; also called human FcγRIIB; CD32b
T1 sequence (looked up): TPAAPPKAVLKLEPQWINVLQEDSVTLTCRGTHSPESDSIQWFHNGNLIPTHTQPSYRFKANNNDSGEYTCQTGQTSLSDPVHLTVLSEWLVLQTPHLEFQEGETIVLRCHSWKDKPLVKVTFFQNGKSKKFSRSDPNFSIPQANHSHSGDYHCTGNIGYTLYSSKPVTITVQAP
The experiment in a line: FACS sorting of displayed Fc library on biotin-FcγRIIB, NGS; reference G327A.

Test [2] deals with T1, Biotin-FcγRIIB. The experiment in a line: FACS sorting of displayed Fc library on biotin-FcγRIIB, NGS.
Test [3] has as its target T1, Biotin-FcγRIIB. The experiment in a line: FACS sorting of displayed Fc library on biotin-FcγRIIB, NGS; reference P271C.

B1: human IgG2 anti-mouse CD40 surface displayed antibody, Fc mutant G327A/A330R (antibody, name in EU numbering)
light chain (with the P2A rest): DTVLTQSPALAVSPGERVTISCRASDSVSTLMHWYQQKPGQQPKLLIYLASHLESGVPARFSGSGSGTDFTLTIDPVEADDTATYYCQQSWNDPWTFGGGTKLELKRTVAAPSVFIFPPSDEQLKSGTASVVCLLNNFYPREAKVQWKVDNALQSGNSQESVTEQDSKDSTYSLSSTLTLSKADYEKHKVYACEVTHQGLSSPVTKSFNRGECGSGATNFSLLKQAGDVEENPG
heavy chain: EVQLVESDGGLVQPGRSLKLPCAASGFTFSDYYMAWVRQAPTKGLEWVASISYDGSSTYYRDSVKGRFTISRDNAKSTLYLQMDSLRSEDTATYYCGRHSSYFDYWGQGVMVTVSSASTKGPSVFPLAPCSRSTSESTAALGCLVKDYFPEPVTVSWNSGALTSGVHTFPAVLQSSGLYSLSSVVTVPSSNFGTQTYTCNVDHKPSNTKVDKTVERKCCVECPPCPAPPVAGPSVFLFPPKPKDTLMISRTPEVTCVVVDVSHEDPEVQFNWYVDGVEVHNAKTKPREEQFNSTFRVVSVLTVVHQDWLNGKEYKCKVSNKALPRPIEKTISKTKGQPREPQVYTLPPSREEMTKNQVSLTCLVKGFYPSDIAVEWESNGQPENNYKTTPPMLDSDGSFFLYSKLTVDKSRWQQGNVFSCSVMHEALHNHYTQKSLSLSPGKLEPPPSTVSNMATVAVLVVLGAAIVTGAVVAFVMKMRRRNTGGKGGDYALAPGSQTSDLSLPDCKVMVHDPHSLA
notes: as m1; positions are Eu numbers; copies: 2 + 2
For the molecule B1, the “Increased factor 2 c Site 1 (combined/point mutation)” value in test [1] turned out to be 19.5. In addition, in test [2], the “Enrichment factor (after/before sorting)” value was 98.3 and the “Increased factor a (enrichment factor/wild-type enrichment factor)” value is 65.8.

B2: human IgG2 anti-mouse CD40 surface displayed antibody, Fc mutant G327A/I332E (antibody, name in EU numbering)
light chain (with the P2A rest): DTVLTQSPALAVSPGERVTISCRASDSVSTLMHWYQQKPGQQPKLLIYLASHLESGVPARFSGSGSGTDFTLTIDPVEADDTATYYCQQSWNDPWTFGGGTKLELKRTVAAPSVFIFPPSDEQLKSGTASVVCLLNNFYPREAKVQWKVDNALQSGNSQESVTEQDSKDSTYSLSSTLTLSKADYEKHKVYACEVTHQGLSSPVTKSFNRGECGSGATNFSLLKQAGDVEENPG
heavy chain: EVQLVESDGGLVQPGRSLKLPCAASGFTFSDYYMAWVRQAPTKGLEWVASISYDGSSTYYRDSVKGRFTISRDNAKSTLYLQMDSLRSEDTATYYCGRHSSYFDYWGQGVMVTVSSASTKGPSVFPLAPCSRSTSESTAALGCLVKDYFPEPVTVSWNSGALTSGVHTFPAVLQSSGLYSLSSVVTVPSSNFGTQTYTCNVDHKPSNTKVDKTVERKCCVECPPCPAPPVAGPSVFLFPPKPKDTLMISRTPEVTCVVVDVSHEDPEVQFNWYVDGVEVHNAKTKPREEQFNSTFRVVSVLTVVHQDWLNGKEYKCKVSNKALPAPEEKTISKTKGQPREPQVYTLPPSREEMTKNQVSLTCLVKGFYPSDIAVEWESNGQPENNYKTTPPMLDSDGSFFLYSKLTVDKSRWQQGNVFSCSVMHEALHNHYTQKSLSLSPGKLEPPPSTVSNMATVAVLVVLGAAIVTGAVVAFVMKMRRRNTGGKGGDYALAPGSQTSDLSLPDCKVMVHDPHSLA
notes: as for B1
Take B2: the “Increased factor 2 c Site 1 (combined/point mutation)” value in test [1] came to 24.9. In test [2], the “Enrichment factor (after/before sorting)” value was 126 and the “Increased factor a (enrichment factor/wild-type enrichment factor)” value came out at 84.1.

B3: human IgG2 anti-mouse CD40 surface displayed antibody, Fc mutant S267A/P271C (antibody, name in EU numbering)
light chain (with the P2A rest): DTVLTQSPALAVSPGERVTISCRASDSVSTLMHWYQQKPGQQPKLLIYLASHLESGVPARFSGSGSGTDFTLTIDPVEADDTATYYCQQSWNDPWTFGGGTKLELKRTVAAPSVFIFPPSDEQLKSGTASVVCLLNNFYPREAKVQWKVDNALQSGNSQESVTEQDSKDSTYSLSSTLTLSKADYEKHKVYACEVTHQGLSSPVTKSFNRGECGSGATNFSLLKQAGDVEENPG
heavy chain: EVQLVESDGGLVQPGRSLKLPCAASGFTFSDYYMAWVRQAPTKGLEWVASISYDGSSTYYRDSVKGRFTISRDNAKSTLYLQMDSLRSEDTATYYCGRHSSYFDYWGQGVMVTVSSASTKGPSVFPLAPCSRSTSESTAALGCLVKDYFPEPVTVSWNSGALTSGVHTFPAVLQSSGLYSLSSVVTVPSSNFGTQTYTCNVDHKPSNTKVDKTVERKCCVECPPCPAPPVAGPSVFLFPPKPKDTLMISRTPEVTCVVVDVAHEDCEVQFNWYVDGVEVHNAKTKPREEQFNSTFRVVSVLTVVHQDWLNGKEYKCKVSNKGLPAPIEKTISKTKGQPREPQVYTLPPSREEMTKNQVSLTCLVKGFYPSDIAVEWESNGQPENNYKTTPPMLDSDGSFFLYSKLTVDKSRWQQGNVFSCSVMHEALHNHYTQKSLSLSPGKLEPPPSTVSNMATVAVLVVLGAAIVTGAVVAFVMKMRRRNTGGKGGDYALAPGSQTSDLSLPDCKVMVHDPHSLA
notes: as for B1
Regarding B3, the “Increased factor 2 c Site 2 (combined/point mutation)” value in test [3] was 2.2. Moreover, in test [2], the “Enrichment factor (after/before sorting)” value turned out to be 37.4 and the “Increased factor a (enrichment factor/wild-type enrichment factor)” value stood at 65.1.

B4: human IgG2 anti-mouse CD40 surface displayed antibody, Fc mutant G327A/I332A (antibody, name in EU numbering)
light chain (with the P2A rest): DTVLTQSPALAVSPGERVTISCRASDSVSTLMHWYQQKPGQQPKLLIYLASHLESGVPARFSGSGSGTDFTLTIDPVEADDTATYYCQQSWNDPWTFGGGTKLELKRTVAAPSVFIFPPSDEQLKSGTASVVCLLNNFYPREAKVQWKVDNALQSGNSQESVTEQDSKDSTYSLSSTLTLSKADYEKHKVYACEVTHQGLSSPVTKSFNRGECGSGATNFSLLKQAGDVEENPG
heavy chain: EVQLVESDGGLVQPGRSLKLPCAASGFTFSDYYMAWVRQAPTKGLEWVASISYDGSSTYYRDSVKGRFTISRDNAKSTLYLQMDSLRSEDTATYYCGRHSSYFDYWGQGVMVTVSSASTKGPSVFPLAPCSRSTSESTAALGCLVKDYFPEPVTVSWNSGALTSGVHTFPAVLQSSGLYSLSSVVTVPSSNFGTQTYTCNVDHKPSNTKVDKTVERKCCVECPPCPAPPVAGPSVFLFPPKPKDTLMISRTPEVTCVVVDVSHEDPEVQFNWYVDGVEVHNAKTKPREEQFNSTFRVVSVLTVVHQDWLNGKEYKCKVSNKALPAPAEKTISKTKGQPREPQVYTLPPSREEMTKNQVSLTCLVKGFYPSDIAVEWESNGQPENNYKTTPPMLDSDGSFFLYSKLTVDKSRWQQGNVFSCSVMHEALHNHYTQKSLSLSPGKLEPPPSTVSNMATVAVLVVLGAAIVTGAVVAFVMKMRRRNTGGKGGDYALAPGSQTSDLSLPDCKVMVHDPHSLA
notes: as for B1
In the case of B4, the “Increased factor 2 c Site 1 (combined/point mutation)” value in test [1] stood at 5.8. Also, in test [2], the “Enrichment factor (after/before sorting)” value worked out at 29.2 and the “Increased factor a (enrichment factor/wild-type enrichment factor)” value turned out to be 19.5.

B5: human IgG2 anti-mouse CD40 surface displayed antibody, Fc mutant G327A/A330V (antibody, name in EU numbering)
light chain (with the P2A rest): DTVLTQSPALAVSPGERVTISCRASDSVSTLMHWYQQKPGQQPKLLIYLASHLESGVPARFSGSGSGTDFTLTIDPVEADDTATYYCQQSWNDPWTFGGGTKLELKRTVAAPSVFIFPPSDEQLKSGTASVVCLLNNFYPREAKVQWKVDNALQSGNSQESVTEQDSKDSTYSLSSTLTLSKADYEKHKVYACEVTHQGLSSPVTKSFNRGECGSGATNFSLLKQAGDVEENPG
heavy chain: EVQLVESDGGLVQPGRSLKLPCAASGFTFSDYYMAWVRQAPTKGLEWVASISYDGSSTYYRDSVKGRFTISRDNAKSTLYLQMDSLRSEDTATYYCGRHSSYFDYWGQGVMVTVSSASTKGPSVFPLAPCSRSTSESTAALGCLVKDYFPEPVTVSWNSGALTSGVHTFPAVLQSSGLYSLSSVVTVPSSNFGTQTYTCNVDHKPSNTKVDKTVERKCCVECPPCPAPPVAGPSVFLFPPKPKDTLMISRTPEVTCVVVDVSHEDPEVQFNWYVDGVEVHNAKTKPREEQFNSTFRVVSVLTVVHQDWLNGKEYKCKVSNKALPVPIEKTISKTKGQPREPQVYTLPPSREEMTKNQVSLTCLVKGFYPSDIAVEWESNGQPENNYKTTPPMLDSDGSFFLYSKLTVDKSRWQQGNVFSCSVMHEALHNHYTQKSLSLSPGKLEPPPSTVSNMATVAVLVVLGAAIVTGAVVAFVMKMRRRNTGGKGGDYALAPGSQTSDLSLPDCKVMVHDPHSLA
notes: as for B1
Turning to B5, the “Increased factor 2 c Site 1 (combined/point mutation)” value in test [1] was 1.4. In addition, in test [2], the “Enrichment factor (after/before sorting)” value was 6.98 and the “Increased factor a (enrichment factor/wild-type enrichment factor)” value is 4.67.

B6: human IgG2 anti-mouse CD40 surface displayed antibody, Fc mutant G327A/I332C (antibody, name in EU numbering)
light chain (with the P2A rest): DTVLTQSPALAVSPGERVTISCRASDSVSTLMHWYQQKPGQQPKLLIYLASHLESGVPARFSGSGSGTDFTLTIDPVEADDTATYYCQQSWNDPWTFGGGTKLELKRTVAAPSVFIFPPSDEQLKSGTASVVCLLNNFYPREAKVQWKVDNALQSGNSQESVTEQDSKDSTYSLSSTLTLSKADYEKHKVYACEVTHQGLSSPVTKSFNRGECGSGATNFSLLKQAGDVEENPG
heavy chain: EVQLVESDGGLVQPGRSLKLPCAASGFTFSDYYMAWVRQAPTKGLEWVASISYDGSSTYYRDSVKGRFTISRDNAKSTLYLQMDSLRSEDTATYYCGRHSSYFDYWGQGVMVTVSSASTKGPSVFPLAPCSRSTSESTAALGCLVKDYFPEPVTVSWNSGALTSGVHTFPAVLQSSGLYSLSSVVTVPSSNFGTQTYTCNVDHKPSNTKVDKTVERKCCVECPPCPAPPVAGPSVFLFPPKPKDTLMISRTPEVTCVVVDVSHEDPEVQFNWYVDGVEVHNAKTKPREEQFNSTFRVVSVLTVVHQDWLNGKEYKCKVSNKALPAPCEKTISKTKGQPREPQVYTLPPSREEMTKNQVSLTCLVKGFYPSDIAVEWESNGQPENNYKTTPPMLDSDGSFFLYSKLTVDKSRWQQGNVFSCSVMHEALHNHYTQKSLSLSPGKLEPPPSTVSNMATVAVLVVLGAAIVTGAVVAFVMKMRRRNTGGKGGDYALAPGSQTSDLSLPDCKVMVHDPHSLA
notes: as for B1
Regarding B6, in test [1], the “Increased factor 2 c Site 1 (combined/point mutation)” value worked out at 2.3. Besides, in test [2], the “Enrichment factor (after/before sorting)” value was determined as 11.4 and the “Increased factor a (enrichment factor/wild-type enrichment factor)” value turned out to be 7.64.
